Test system: E2F8
Assay: Chromatin immunoprecipitation (ChIP) with E2F8 antibody
Format: cell-based, human
Settings: APELIN-overexpressing HDLEC
Protocol: Human dermal lymphatic endothelial cells (HDLEC) non transduced or transduced with Apelin Lentivector, were crosslinked for 15 min using 1% formaldehyde directly in the culture medium. 0.125 M of Glycine were then added for 5 min. After two washes with cold PBS, cells were scraped and frozen at −80° C. Cells were lysed to ChIP-IT Express Magnetic Chromatin
Immunoprecipitation kit (Active Motif 53008). Optimal sonication conditions were determined previously in order to obtain DNA fragments of about 500 bp. Cells were sonicated in 350 μl final volume of Shearing buffer specific to the kit, using Diagenode Bioruptor Sonicator (7 cycles, 30 sec ON, 30 sec OFF in a water bath). DNA concentration was determined using a Nanodrop and 25 μg of chromatin were used by reaction. Experiments were then performed according to the manufacturer protocol. 4 μg of E2F8 antibody (Abcam, AB 109596) were used by ChIP reaction. 10 μl of each sample were kept as Input. Reactions were incubated over night at 4° C. A mock sample without antibody was processed similarly. Prior to qPCR, DNA was purified using the Active Motif Chromatin IP DNA purification kit (58002), and eluted in 50 μl of DNase/RNase free water. 2 μl of purified chromatin was used for qPCR. In some experiments, ChIP reactions were supplemented with 10 ng of Drosophila melanogaster chromatin (spike in chromatin, Active motif, 08221011), and 1 μg of an antibody recognizing H2Av, a Drosophila specific histone variant, (spike in antibody, active motif, 61686), as an internal control for ChIP normalization.
HDLEC were seeded in 6-well plates at 100 000 cells/well. After 24 h, cells were transduced with 1 mL of Apelin lentivector diluted in 1 mL of OptiMEM Media in the presence of proteamine sulfate at a final concentration of 5 μg/mL. The Control cells (NT) non transduced with the Apelin Lentivector were processed at the same time and following the same protocol; in this case 2 mL of OptiMEM and 5 μg/mL of proteamine sulfate were added to the cells. The media was replaced after 24 h. […]

B1: APELIN: bioactive peptide apelin, endogenous ligand of APJ; applied to HDLEC as conditioned media from LV-Apelin transduced NIH3T3 or by transduction (protein, listed as Homo sapiens)
chain: MNLRLCVQALLLLWLSLTAVCGGSLMPLPDGNGLEDGNVRHLVQPRGSRNGPGPWQGGRRKFRRQRPRLSHKGPMPF
E2F8 binding on FLT4: no binding
E2F8 binding to CCBE1 promoter: significantly increased
E2F8 binding to E2F1 transcription factor promoter: induced

From patent US20260041732A1, “USE OF APELIN FOR THE TREATMENT OF LYMPHEDEMA” (INSTITUT NATIONAL DE LA SANTE ET DE LA RECHERCHE MEDICALE, priority 2022, published 2026)
